From PMC11326279 (bioRxiv, 2024) come the findings set out here.

The target in the assay is FtsH with a C-terminal FLAG epitope, chromosomally encoded (E. coli, UniProt P0AAI3 1-644). Nature of the assay: cryo-EM structure.
Sequence of FtsH with a C-terminal FLAG epitope, chromosomally encoded (P0AAI3 whole entry): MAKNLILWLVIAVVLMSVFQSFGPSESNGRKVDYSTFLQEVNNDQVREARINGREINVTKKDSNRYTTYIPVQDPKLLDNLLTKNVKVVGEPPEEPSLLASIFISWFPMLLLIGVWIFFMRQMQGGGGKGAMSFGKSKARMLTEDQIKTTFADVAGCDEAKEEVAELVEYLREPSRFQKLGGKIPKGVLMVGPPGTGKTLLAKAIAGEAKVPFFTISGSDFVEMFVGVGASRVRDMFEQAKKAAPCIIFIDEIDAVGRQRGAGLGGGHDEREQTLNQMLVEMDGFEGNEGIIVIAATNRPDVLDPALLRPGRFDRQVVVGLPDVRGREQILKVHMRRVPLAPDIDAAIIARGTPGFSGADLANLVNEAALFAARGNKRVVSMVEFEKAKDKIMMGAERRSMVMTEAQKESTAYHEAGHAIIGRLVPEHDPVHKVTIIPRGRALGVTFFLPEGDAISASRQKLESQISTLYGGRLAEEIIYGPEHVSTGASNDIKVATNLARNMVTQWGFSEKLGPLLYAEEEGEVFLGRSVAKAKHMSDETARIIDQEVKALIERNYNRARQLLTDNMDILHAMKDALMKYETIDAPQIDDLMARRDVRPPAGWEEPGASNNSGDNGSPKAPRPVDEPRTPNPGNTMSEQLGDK

B1: HflC, endogenous (natural protein, E. coli (endogenous in BL21(DE3)), UniProt P0ABC3 1-334, looked up)
chain: MRKSVIAIIIIVLVVLYMSVFVVKEGERGITLRFGKVLRDDDNKPLVYEPGLHFKIPFIETVKMLDARIQTMDNQADRFVTKEKKDLIVDSYIKWRISDFSRYYLATGGGDISQAEVLLKRKFSDRLRSEIGRLDVKDIVTDSRGRLTLEVRDALNSGSAGTEDEVTTPAADNAIAEAAERVTAETKGKVPVINPNSMAALGIEVVDVRIKQINLPTEVSEAIYNRMRAEREAVARRHRSQGQEEAEKLRATADYEVTRTLAEAERQGRIMRGEGDAEAAKLFADAFSKDPDFYAFIRSLRAYENSFSGNQDVMVMSPDSDFFRYMKTPTSATR
As for B1, the binding result is “binds”.

B2: HflK, endogenous (natural protein, E. coli (endogenous in BL21(DE3)), UniProt P0ABC7 1-419, looked up)
chain: MAWNQPGNNGQDRDPWGSSKPGGNSEGNGNKGGRDQGPPDLDDIFRKLSKKLGGLGGGKGTGSGGGSSSQGPRPQLGGRVVTIAAAAIVIIWAASGFYTIKEAERGVVTRFGKFSHLVEPGLNWKPTFIDEVKPVNVEAVRELAASGVMLTSDENVVRVEMNVQYRVTNPEKYLYSVTSPDDSLRQATDSALRGVIGKYTMDRILTEGRTVIRSDTQRELEETIRPYDMGITLLDVNFQAARPPEEVKAAFDDAIAARENEQQYIREAEAYTNEVQPRANGQAQRILEEARAYKAQTILEAQGEVARFAKLLPEYKAAPEITRERLYIETMEKVLGNTRKVLVNDKGGNLMVLPLDQMLKGGNAPAAKSDNGASNLLRLPPASSSTTSGASNTSSTSQGDIMDQRRANAQRNDYQRQGE
Turning to B2, the binding result is on record as “binds”.
